Results on seven molecules are retold here after PMC7691434, “Interaction Analysis of a Plasmodium falciparum PHISTa-like Protein and PfEMP1 Proteins” (Frontiers in Microbiology, 2020).

The target in test [1] is PF3D7_0800200 (ATS domain, 2,466-2,858 aa)-His (Plasmodium falciparum) (UniProt Q8IAK2). As to the kind of experiment: BLI; Octet K2; ATS-His loaded onto Ni-NTA biosensors; GST-tagged analyte diluted from 1,000 to 62.5 nM in PBS with 0.02% Tween-20; association and dissociation 5 min each; non-linear global fit.
Test [2] concerns the target T1, PF3D7_0800200 (acidic C-terminal segment (ATS) domain, 2,466-2,858 aa)-His (Plasmodium falciparum, UniProt Q8IAK2 2466-2858).
T1 construct: the reverse primer has no stop codon), which would give a C-terminal His tag; also called ATS-His; PfEMP1 ATS; source: E. coli BL21 (DE3), purified
T1 sequence: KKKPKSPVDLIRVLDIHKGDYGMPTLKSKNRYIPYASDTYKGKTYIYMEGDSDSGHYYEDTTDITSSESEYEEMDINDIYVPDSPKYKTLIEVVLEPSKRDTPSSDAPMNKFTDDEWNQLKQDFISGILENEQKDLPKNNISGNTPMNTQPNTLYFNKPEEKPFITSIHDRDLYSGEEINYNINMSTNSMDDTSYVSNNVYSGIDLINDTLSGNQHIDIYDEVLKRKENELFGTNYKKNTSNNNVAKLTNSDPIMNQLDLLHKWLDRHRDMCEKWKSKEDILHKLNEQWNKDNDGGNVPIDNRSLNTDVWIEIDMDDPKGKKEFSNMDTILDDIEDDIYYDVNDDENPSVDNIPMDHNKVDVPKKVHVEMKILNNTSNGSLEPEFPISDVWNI
The test is described as follows: BLI; Octet K2 (ForteBio); ATS-His loaded onto Ni-NTA biosensors; GST-tagged protein in solution diluted from 1,000 to 62.5 nM in PBS with 0.02% Tween-20; association and dissociation 5 min each; non-linear global fit; KD calculated as Kdis/Kon. To be noted: both partners purified.

The target in test [3] is T2, PF3D7_0800200 (ATS domain, 2,466-2,858 aa)-His (Plasmodium falciparum, UniProt Q8IAK2 2466-2858).
T2 construct: Cloned into pET-28a; also called ATS-His; PfEMP1 ATS; source: E. coli BL21 (DE3), purified
T2 sequence: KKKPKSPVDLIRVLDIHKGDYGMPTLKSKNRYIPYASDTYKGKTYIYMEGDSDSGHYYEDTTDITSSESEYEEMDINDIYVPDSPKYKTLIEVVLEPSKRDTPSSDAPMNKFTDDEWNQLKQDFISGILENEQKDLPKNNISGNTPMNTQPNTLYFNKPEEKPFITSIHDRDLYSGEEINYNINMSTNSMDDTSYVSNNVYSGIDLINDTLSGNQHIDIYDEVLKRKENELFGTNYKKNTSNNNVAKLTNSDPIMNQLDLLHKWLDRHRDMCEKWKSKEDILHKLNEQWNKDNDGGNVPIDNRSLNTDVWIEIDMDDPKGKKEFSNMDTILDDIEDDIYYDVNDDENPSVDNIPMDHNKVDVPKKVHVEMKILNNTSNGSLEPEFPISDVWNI
As to the kind of experiment: BLI; Octet K2; ATS-His loaded onto Ni-NTA biosensors; GST-tagged analyte diluted from 1,000 to 62.5 nM in PBS with 0.02% Tween-20; association and dissociation 5 min each; non-linear global fit. To be noted: both partners purified.

Molecule GST registered a Kd in test [1] below 0.001 nM.

B1: PF3D7_1372300 (27-206 aa)-GST (domain or fragment)
chain: RNEIHKNSLGFGKNDNIYSRNLAQLKLSNYSLLKDSKFESVTEQLTREELYELFDLLVQVPPRTYLLNIWNHKNGICRQGTKDLLKNLRGIAPKLTYRHTGNTNQYGKSPPKITWQGCSYDCNMMVSTLETEQTNRFYNLLNKKAPIDEIKSFIRSCIDEFDKLHTDLYVKYEKIFSEQK
notes: PF3D7_1372300, a PHIST/PHISTa-like protein of Plasmodium falciparum, residues 27-206 (without the 25-residue signal peptide), amplified from P. falciparum cDNA; the reverse primer carries a stop codon; also called PF3D7_1372300-GST; 1372300-GST; source: E. coli BL21 (DE3), purified
As to B1, in test [2], the dissociation rate constant (koff) is 0.000756 s⁻¹ and the kon was 6330 M⁻¹ s⁻¹.

B2: PF3D7_1372300 (27-206 aa)-GST (domain or fragment)
chain: RNEIHKNSLGFGKNDNIYSRNLAQLKLSNYSLLKDSKFESVTEQLTREELYELFDLLVQVPPRTYLLNIWNHKNGICRQGTKDLLKNLRGIAPKLTYRHTGNTNQYGKSPPKITWQGCSYDCNMMVSTLETEQTNRFYNLLNKKAPIDEIKSFIRSCIDEFDKLHTDLYVKYEKIFSEQK
notes: PF3D7_1372300, PHIST/PHISTa-like protein of Plasmodium falciparum, residues 27-206 (without the 25 amino acid signal peptide), amplified from P. falciparum cDNA; Cloned into pGEX-4T-1; also called PF3D7_1372300-GST; PHIST/PHISTa-like protein; source: E. coli BL21 (DE3), purified
With B2, in test [3], the affinity, expressed as Kd, was 119 nM.

B3: PF3D7_1372300-(27-129)-GST (domain or fragment)
chain: RNEIHKNSLGFGKNDNIYSRNLAQLKLSNYSLLKDSKFESVTEQLTREELYELFDLLVQVPPRTYLLNIWNHKNGICRQGTKDLLKNLRGIAPKLTYRHTGNT
notes: PF3D7_1372300, a PHIST/PHISTa-like protein of Plasmodium falciparum, residues 27-129; purified 'according to the methods described above'; also called PF3D7_1372300 (residues 27-129); source: E. coli BL21 (DE3), purified
B3: in test [2], the off-rate constant (koff) was 0.000844 s⁻¹ and the kon was 6630 M⁻¹ s⁻¹.

B4: PF3D7_1372300-(27-129)-GST (domain or fragment)
chain: RNEIHKNSLGFGKNDNIYSRNLAQLKLSNYSLLKDSKFESVTEQLTREELYELFDLLVQVPPRTYLLNIWNHKNGICRQGTKDLLKNLRGIAPKLTYRHTGNT
notes: PF3D7_1372300, PHIST/PHISTa-like protein of Plasmodium falciparum, residues 27-129; source: E. coli BL21 (DE3), purified (according to the methods described for the other recombinant proteins)
The molecule B4 had an equilibrium dissociation constant (Kd) in test [3] of 127 nM.

B5: PF3D7_1372300-(130-206)-GST (domain or fragment)
chain: NQYGKSPPKITWQGCSYDCNMMVSTLETEQTNRFYNLLNKKAPIDEIKSFIRSCIDEFDKLHTDLYVKYEKIFSEQK
notes: PF3D7_1372300, a PHIST/PHISTa-like protein of Plasmodium falciparum, residues 130-206; purified 'according to the methods described above'; also called PF3D7_1372300 (residues 130-206); source: E. coli BL21 (DE3), purified
As for B5, in test [2], the off-rate (koff) is 0.000158 s⁻¹ and the kon was 6960 M⁻¹ s⁻¹.

B6: PF3D7_1372300-(130-206)-GST (domain or fragment)
chain: NQYGKSPPKITWQGCSYDCNMMVSTLETEQTNRFYNLLNKKAPIDEIKSFIRSCIDEFDKLHTDLYVKYEKIFSEQK
notes: PF3D7_1372300, PHIST/PHISTa-like protein of Plasmodium falciparum, residues 130-206; source: E. coli BL21 (DE3), purified (according to the methods described for the other recombinant proteins)
Molecule B6 yielded a Kd in test [3] of 22.6 nM.
